Here are results for 27 sequences from the supplement of paper PMC9170038.

For this data set, the system named is MS2 coat protein. In words: apparent KD of MS2 coat protein; designed switch direction (-1 OFF switch, 1 ON switch): 1; higher = weaker reporter binding. The method in brief:
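Apparent KD, taken as the median over clusters for each design, was obtained by curve-fitting normalised cluster fluorescence. Designed RNA switches had been transcribed on Illumina chips by stalled E. coli RNA polymerase and titrated with SNAP-549-labelled MS2 coat protein, doubling from 0.7 or 1.5 nM to 3 µM.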

[1] abbreviates: input ligand: microRNA oligo, concentration not stated.
[2] abbreviates: Eterna round: R95, input ligand: FMN 200 uM.
Where [3] appears, read: Eterna round: R95, input ligand: microRNA oligo, concentration not stated.
[4] abbreviates: Eterna round: R95, input ligand: none.

Turning to “GAGCUCCAACGCGGAGCUCCACAUGAGGAUCACCCAUGUACACAGGAUAUCACUCCCUUUGGGAGUGAGAAGGGUGGUUCGGAA [Bebeave] (Eterna round: R96, puzzle: Same State NG 3)”, the “apparent KD of MS2 coat protein” value runs as follows: (input ligand: FMN 200 uM) 41.4 nM; under setting [1], 41.9 nM; (input ligand: none) 58.6 nM.

For the sequence “GAGCUCGUGUGAGGAUAUGCCGCCGUUUCGGCUGCAGAAGGUGCUACGUUACAUGAGGAUCACCCAUGUCUCUGUUGUUUCGUA [salish99_SSNG1_r04_960] (Eterna round: R96, puzzle: Same State NG 1)”, the “apparent KD of MS2 coat protein” value runs as follows: (input ligand: FMN 200 uM) 65.1 nM; under setting [1], 43.3 nM; (input ligand: none) 51.1 nM.

In the case of “GAGCUCGUGUGAGGAUAUGCCGCCGUUUCGGCUGCAGAAGGUGCUACGUUACAUGAGGAUCACCCAUGUCUCUGUUGUUUCGUC [salish99_SSNG1_r04_961] (Eterna round: R96, puzzle: Same State NG 1)”, the “apparent KD of MS2 coat protein” value reads like this: (input ligand: FMN 200 uM) 25.1 nM; under setting [1], 24.2 nM; (input ligand: none) 30 nM.

Consider “GAGGAUGAUUUACAGGAUAUAUAGAAGAUGACAUGAGGAUCACCCAUGUAAGAGAGAGGAGGGAGAUAGAAGGGUAAGGGAUGUG [JR_SS2_Sub41] (puzzle: Same State 2)”, for which the “apparent KD of MS2 coat protein” value runs as follows: under setting [2], 35.4 nM; under setting [3], 27.8 nM; under setting [4], 49.6 nM.

On to “GAGGGCGAAAGCAACAUGAGGAUCACCCAUGUCCUCGGAGGUCAGGAUAUCCGGCGGUAGCCGAAGGAGAAGGGACGGUGAACC [AK SSNG3-V2-32.1] (Eterna round: R96, puzzle: Same State NG 3)”, for which the “apparent KD of MS2 coat protein” value amounted to 180 nM (input ligand: FMN 200 uM), 97.5 nM under setting [1] and 175 nM (input ligand: none).

Take “GAGUAGUUGAAAGGAUAUGGAUUGUUAUAGAAUCCAGAAGGUUCUAACAUGAGGAUCACCCAUGUAGGACUAUUCCUGUGUAUC [Parity 79 - Jieux - Same State NG 1] (Eterna round: R96, puzzle: Same State NG 1)”: the “apparent KD of MS2 coat protein” value reads like this: (input ligand: FMN 200 uM) 10.2 nM; under setting [1], 9.3 nM; (input ligand: none) 12.2 nM.

Consider “GAGUAGUUGGGAGGAUAUCCAUUGUUAUAGAAUGGAGAAGGUUUUAACAUGAGGAUCACCCAUGUAGGACUAUUCCUGUGUAUC [Parity 72 - Jieux - Same State NG 1] (Eterna round: R96, puzzle: Same State NG 1)”, for which the “apparent KD of MS2 coat protein” value runs as follows: (input ligand: FMN 200 uM) 13.5 nM; under setting [1], 12.2 nM; (input ligand: none) 16.8 nM.

Consider “GAGUGACAUGAGGAUCACCCAUGUAGAAUAGAACAAGGAUAUGUGGAAGGCGGAGGAGAGACAGAAGGUGUUGAAG [JR_SS1_Sub057] (puzzle: Same State 1)”, for which the “apparent KD of MS2 coat protein” value under setting [2] stood at 49 nM, the “apparent KD of MS2 coat protein” value under setting [3] stood at 46 nM and the “apparent KD of MS2 coat protein” value under setting [4] turned out to be 67.7 nM.

For “GAGUGGCAGUUAGGAUAUAUAGUGAUAAUUACAAUAGAAGGAACAGACAUGAGGAUCACCCAUGUAGGACUAAUCCAGAGAGAG [Parity 38 - Jieux - Same State NG 1] (Eterna round: R96, puzzle: Same State NG 1)”, the “apparent KD of MS2 coat protein” value by setting is: (input ligand: FMN 200 uM) 30.9 nM; under setting [1], 20.6 nM; (input ligand: none) 30.9 nM.

On to “GAUACACAUGAGGAUCACCCAUGUCGUAUGACAUGAGGAUAUGUACAGACUUCGGUCUGUACAGAAGGCAUGUGUC [SS1 - 1011 Omei Mod 2] (puzzle: Same State 1)”, for which the “apparent KD of MS2 coat protein” value under setting [3] was 48.3 nM.

Regarding “GAUCGUUUGAUAGGAUAUCGCUAUACAUGAGGAUCACCCAUGUUUACCACGCUGGUUUUUCAUACCGAGAAGGAUUCUGAUGAA [salish99_SSNG02_r04_010] (Eterna round: R96, puzzle: Same State NG 2)”, the “apparent KD of MS2 coat protein” value is 27.5 nM (input ligand: FMN 200 uM), 27.8 nM under setting [1] and 30.7 nM (input ligand: none).

As for “GAUUCACAUGAGGAUCACCCAUGUCGUAAUAUGGGAGGAUAUACGUGGACCGUAGUCCGCGUAGAAGGCCUAAUUG [Mat - Same State 1 - Mod of JL - D25] (puzzle: Same State 1)”, the “apparent KD of MS2 coat protein” value under setting [3] is 148 nM.

Take “GCACAUGAGGAUCACCCAUGUGCGAGAAAGACGGACCGGAUACAGGAUAUGCGCGAACGGAAGACGCAGAAGGGUGACCAAAAC [Anmaed] (Eterna round: R96, puzzle: Same State NG 3)”: the “apparent KD of MS2 coat protein” value was found to be 64.1 nM (input ligand: FMN 200 uM), 38.2 nM under setting [1] and 40.6 nM (input ligand: none).

As for “GCACUGGCGGUAGGAUAUCUAGGAUAUGGGAAAGACUAAGUCUGUAGGUCACCUAACCCAGAAGGAGAGAAGGACACCGAAAGG [pwkr ssNG2 2FMN + F9.20] (Eterna round: R96, puzzle: Same State NG 2)”, the “apparent KD of MS2 coat protein” value was 115 nM (input ligand: FMN 200 uM), 16.5 nM under setting [1] and 12.9 nM (input ligand: none).

For “GCACUGGCGGUAGGAUAUCUAGGAUAUGGGAAAGACUAAGUCUGUAGGUCACCUAACCCAGAAGGAGAGAAGGACCCUGUAAGG [pwkr ssNG2 2FMN + F9.22] (Eterna round: R96, puzzle: Same State NG 2)”, the “apparent KD of MS2 coat protein” value stood at 6.55 nM (input ligand: FMN 200 uM), 1.33 nM under setting [1] and 18.1 nM (input ligand: none).

On to “GCAGAACAUGAGGAUCACCCAUGUCUCUAAUAUCGAGGAUAUGGGCACGGUAUAUCCGAACCAGAAGGCGAACUGC [SS1 Teenbexe 15] (puzzle: Same State 1)”, for which the “apparent KD of MS2 coat protein” value under setting [3] is 244 nM.

Consider “GCAGUACACGCAGAGGAUAUGUCGGUAACGACAUGAGGAUCACCCAUGUGUACGGAAGUACUCAGACAGAAGGCUGUGUACUGCU [Same State 2 - Hyphema v.3] (puzzle: Same State 2)”, for which the “apparent KD of MS2 coat protein” value by setting is: under setting [2], 19.4 nM; under setting [3], 79.1 nM; under setting [4], 96.2 nM.

For “GCAUUAGGCAUAGGAUAUCCAACAUGAGGAUCACCCAUGUCGCAGCGUGAAAAGAACGCUGCAAAGGAGAAGGAUGCGGUUUAC [Onususa] (Eterna round: R96, puzzle: Same State NG 2)”, the “apparent KD of MS2 coat protein” value turned out to be 11.8 nM (input ligand: FMN 200 uM), 18.8 nM under setting [1] and 29.9 nM (input ligand: none).

On to “GCCAACACAUGAGGAUAUGGCACCUUAUUGGUGCCAGAAGGCAUGUGAAUUCACAUGAGGAUCACCCAUGUAUUAUAGUUGGCA [Fiskers NG1ss - 19] (Eterna round: R96, puzzle: Same State NG 1)”, for which the “apparent KD of MS2 coat protein” value reads like this: (input ligand: FMN 200 uM) 18.8 nM; under setting [1], 75.1 nM; (input ligand: none) 121 nM.

Turning to “GCCAACGCAUGAGGAUAUGGCACCUUAUUGGUGCCAGAAGGCAUGUGUAUUCACAUGAGGAUCACCCAUGUAUUAUAGUUGGCA [Fiskers NG1ss - 16] (Eterna round: R96, puzzle: Same State NG 1)”, the “apparent KD of MS2 coat protein” value runs as follows: (input ligand: FMN 200 uM) 18.2 nM; under setting [1], 132 nM; (input ligand: none) 176 nM.

For “GCCAUCGUAUGAGGAUAUGGCACCGUUUCGGUGCCAGAAGGCAUGUCAAUUGACAUGAGGAUCACCCAUGUAUUAUCGAUGGCA [JL Fiskers NG1ss - 33 mod 6] (Eterna round: R96, puzzle: Same State NG 1)”, the “apparent KD of MS2 coat protein” value was determined as 99.8 nM (input ligand: FMN 200 uM), 485 nM under setting [1] and 925 nM (input ligand: none).

Turning to “GCCGGCUGGUGAGGAUAUGGCACCUUAUUGGUGCCAGAAGGCAUGUCAAUUGACAUGAGGAUCACCCAUGUAUUAUGGUUGGCG [salish99_SSNG1_r04_606] (Eterna round: R96, puzzle: Same State NG 1)”, the “apparent KD of MS2 coat protein” value is 567 nM (input ligand: FMN 200 uM), 63.2 nM under setting [1] and 85.4 nM (input ligand: none).

“GCCGGCUGGUGAGGAUAUGGCACCUUAUUGGUGCCAGAAGGCAUGUCAAUUGACAUGAGGAUCACCCAUGUAUUGUCGUUGGCG [salish99_SSNG1_r04_608] (Eterna round: R96, puzzle: Same State NG 1)”: the “apparent KD of MS2 coat protein” value runs as follows: (input ligand: FMN 200 uM) 819 nM; under setting [1], 194 nM; (input ligand: none) 399 nM.

For “GCCGUAUAAACAUGAGGAUCACCCAUGUGCGCGAGAGCGGAUGAGGAUAUCGAUGGGUUUCCCGUCGAGAAGGCGUGGGUCGGC [JL SSNG3 3.97] (Eterna round: R96, puzzle: Same State NG 3)”, the “apparent KD of MS2 coat protein” value is 31 nM (input ligand: FMN 200 uM), 41.1 nM under setting [1] and 55.2 nM (input ligand: none).

Consider “GCGAAAGCGGUAGGAUAUCUAGGAUAUGGGAAGAGCUAAGCUUGGAAGUCACUUCACCCAGAAGGAGAGAAGGACACCGAAAGG [pwkr ssNG2 2FMN + F9.3] (Eterna round: R96, puzzle: Same State NG 2)”, for which the “apparent KD of MS2 coat protein” value was 2990 nM (input ligand: FMN 200 uM), 302 nM under setting [1] and 390 nM (input ligand: none).

As for “GCGAAGAGGUAAGGAUAUUCAUGGCGUAGACAUGAGGAUCACCCAUGUAGGAGACGAAUUAAAAGGGAGAAGGUACCAGGACGC [AK SSNG2-V2-16] (Eterna round: R96, puzzle: Same State NG 2)”, the “apparent KD of MS2 coat protein” value turned out to be 50.1 nM (input ligand: FMN 200 uM), 298 nM under setting [1] and 286 nM (input ligand: none).

For “GCGAGCGUACUUGCAGACAUGAGGAUCACCCAUGUAACUGGACAGGAUAUGGUACCGUUUCGGUACCAGAAGGGUUUAUAUGUC [JL SSNG3 3.52] (Eterna round: R96, puzzle: Same State NG 3)”, the “apparent KD of MS2 coat protein” value (input ligand: FMN 200 uM) amounted to 40.4 nM, the “apparent KD of MS2 coat protein” value under setting [1] is 25.7 nM and the “apparent KD of MS2 coat protein” value (input ligand: none) stood at 57.4 nM.
